According to publication PMC5041495:

T1: VEGF164 (mouse, UniProt Q00731-2 27-190)
T1 sequence: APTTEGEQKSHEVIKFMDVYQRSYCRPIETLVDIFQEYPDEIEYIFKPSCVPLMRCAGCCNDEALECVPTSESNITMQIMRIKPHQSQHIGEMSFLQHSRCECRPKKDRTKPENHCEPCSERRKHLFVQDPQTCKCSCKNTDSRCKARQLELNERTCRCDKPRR


How the values were obtained:
VEGF164 = target: T1, VEGF164; assay: BLI
alpha-thrombin [1] = target: T2, alpha-thrombin (human, UniProt P00734;P00734 328-363;364-622); assay: BLI
MAPK1 = MAPK1 (UniProt P28482 1-360); assay: BLI
VEGF165 = VEGF165 (human, UniProt P15692-4 27-191); assay: BLI
alpha-thrombin [2] = target: T2, alpha-thrombin; assay: BLI; remark: listed apart in the source
alpha-thrombin [3] = target: T2, alpha-thrombin; assay: BLI; remark: listed apart in the source
alpha-thrombin [4] = target: T2, alpha-thrombin; assay: SPRi

Sequence of MAPK1 (P28482 whole entry): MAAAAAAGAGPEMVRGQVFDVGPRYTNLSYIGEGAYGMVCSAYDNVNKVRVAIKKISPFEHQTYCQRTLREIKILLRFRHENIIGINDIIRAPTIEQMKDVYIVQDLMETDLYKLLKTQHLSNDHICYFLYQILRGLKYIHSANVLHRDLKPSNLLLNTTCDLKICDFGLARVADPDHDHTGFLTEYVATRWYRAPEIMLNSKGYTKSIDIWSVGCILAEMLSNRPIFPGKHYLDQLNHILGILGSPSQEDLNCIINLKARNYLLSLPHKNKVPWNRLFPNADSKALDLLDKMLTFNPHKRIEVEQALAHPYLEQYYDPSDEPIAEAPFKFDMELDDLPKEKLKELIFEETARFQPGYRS

Binder | binding result (VEGF164) | Kd (alpha-thrombin [1]) [nM] | binding result (MAPK1) | binding result (VEGF165) | Kd (alpha-thrombin [2]) [pM] | Kd (alpha-thrombin [3]) [pM] | Kd (alpha-thrombin [4]) [pM]
GGGAACAAAGCUGAAGUACUUACCC (structured_RNA, 2'-F pyrimidines (from crystal construct; ST-2 not in material)) [AF113-1] | no binding | 1.87 ± 0.036 | no binding | no binding | – | – | –
GGGAACAAAGCUGAAGUACUUACCC (structured_RNA, 2'-F pyrimidines; PS2 at 3'-phosphate of U17) [AF113-18] | no binding | – | no binding | no binding | 1 ± 0.1 | 1.8 ± 0.2 | 4.5 ± 0.2
